Positions count from the first letter of the chain named. In names and notes the source's numbering stands. Like-named read-outs stand apart in the source and are kept apart here.
Experiments:
[1] = system: M1 mAChR; format: physicochemical; details: for stability relative to wild-type (retention of bound 3H-NMS), in words: BOG or DDM; for Stability (βOG in-situ) % L65A control / in-situ stability relative to L65A, in words: 0.82% β-octyl glucoside; for Stability (βOG in-situ) % L65A control / % 3H-NMS retained BOG / % loss/wt / mean % retained: 3 h, 4° C.; for Stability (βOG in-situ) % L65A control: % loss(control)/% loss(mutant), mean±SEM of 3; for in-situ stability relative to L65A, in words: L65A background; for % 3H-NMS retained BOG / % loss/wt / mean % retained: 0.82% BOG; for % 3H-NMS retained BOG: whole E. coli BL21 cells, single culture; for % loss/wt: % loss relative to wild-type control; for mean % retained: mean of the cultures
Method: This concentration was determined by analysing wild-type M1 mAChRs expressed in the inner cell membranes of intact E. Coli strain BL21 cells. The cells were pre-labelled with the radiolabelled antagonist 3H—N-methyl scopolamine and resuspended to a pre-determined cell density (Absorbance at 600 nm=2.0) in a chosen buffer (in this case 50 mM sodium phosphate, 1 mM EDTA, pH 7.5). […] The wild-type M1 mAChRs were titrated by the addition of increasing concentrations of beta octyl glucoside dissolved in the same buffer for different times (e.g. 1 h, 2 h, 3 h, 5 h, 15 h) and at different temperatures (e.g. 4° C., 15° C.). The loss of specifically-bound radioligand was then measured after recovering the cells by centrifugation (15000×g, 15 min.). In the example, the centrifugation step was performed on duplicate 1 ml aliquots of the cells. The experiment was repeated 3 times. […] It will be appreciated that the cell density, detergent concentration and other parameters of the assay may be varied to adjust the loss of activity as appropriate.
(a) A state of in-situ destabilisation of a particular membrane protein in a particular cell membrane as a result of the addition of a particular concentration of a particular detergent, can be defined by the loss of the characteristic specific ligand binding activity of the membrane protein for a particular ligand of interest in the presence of a defined concentration of a particular detergent molecule or other solubilising agent.
A preferred version of the assay is destabilisation of a membrane protein-ligand complex in a detergent-enriched membrane. The membrane protein, either in a membrane preparation, or in intact cells in-vivo or ex-vivo, is pre-incubated with a labelled version of the ligand, the label, for instance, being a radioactive label, or a fluorescent label, and the binding step preferably being allowed to proceed to equilibrium, defined as the achievement of a time-invariant level of binding. To define membrane protein-independent, or non-specific, binding the binding step is performed with the addition of a second non-labelled ligand, called the competing ligand, having an appropriate membrane protein-specific pharmacology, at a concentration sufficient fully to occupy the binding sites of the membrane protein and thereby exclude the binding of the labelled ligand. The difference between the binding of the labelled ligand in the absence and presence of the competing ligand is defined as the specific binding of the labelled ligand. Measurement of binding requires a suitable method for separating and measuring bound ligand. Characteristically, this involves centrifugation of intact cells or membranes for a time and at a centrifugal force adequate to pellet them (for instance, 15000×g for 15 min in the case of E. coli cells, or 100,000×g for plasma membrane preparations), or filtration of a membrane suspension e.g. through a suitable filter paper such as glass fibre paper e.g. GF-B or GF-C followed by counting of radioactivity. Alternatively, it might involve the measurement of an optical signal such as enhancement of fluorescence emission in the case of fluorescent ligands.
To perform the in-situ destabilisation assay, a pre-determined concentration of the detergent or other destabilising agent of choice is mixed with a membrane or cell suspension containing the pre-labelled membrane protein in an appropriate buffer composition at a particular temperature and for a particular time, determined as described below.

[2] = system: M1 mAChR; assay: thermal stability (Tm) of partially purified [3H]NMS-labelled receptors in 0.1% dodecyl-β-maltoside; format: physicochemical, rat; details: for Tm (0.1% DDM): incubation time 30 min, mean±range/SEM; for thermal stability (Tm) relative to L65A, in words: partially purified mutants; for Tm (0.1% DDM) / thermal stability (Tm) relative to L65A, in words: 0.1% DDM
Method: For measurements of thermal melting temperature (Tm), [3H]NMS-labelled receptors were partially purified by immobilized metal ion affinity chromatography from cultures grown from single clones expressed in E. Coli BL21 cells, essentially as described in Hulme and Curtis, 1998 (21). Tm measurements were carried out after gel-filtration of partially purified receptors into 50 mM sodium phosphate, 5 mM β-mercaptoethanol and 0.1% dodecyl-β-maltoside (DDM), using an incubation time of 30 min. Values were tabulated as mean±range/SEM of 2 or more independent measurements (Table 3).

B1: M145A: Ala-mutant in the transmembrane region of the M1 mAChR (protein)
chain: MNTSAPPAVSPNITVLAPGKGPWQVAFIGITTGLLSLATVTGNLLVLISFKVNTELKTVNNYFLLSLACADLIIGTFSMNLYTTYLLMGHWALGTLACDLWLALDYVASNASVMNLLLISFDRYFSVTRPLSYRAKRTPRRAALAIGLAWLVSFVLWAPAILFWQYLVGERTVLAGQCYIQFLSQPIITFGTAMAAFYLPVTVMCTLYWRIYRETENRARELAALQGSETPGKGGGSSSSSERSQPGAEGSPETPPGRCCRCCRAPRLLQAYSWKEEEEEDEGSMESLTSSEGEEPGSEVVIKMPMVDPEAQAPTKQPPRSSPNTVKRPTKKGRDRAGKGQKPRGKEQLAKRKTFSLVKEKKAARTLSAILLAFILTWTPYNIMVLVSTFCKDCVPETLWELGYWLCYVNSTINPMCYALCNKAFRDTFRLLLLCRWDKRRWRKIPKRPGSVHRTPSRQC
For B1, the “stability relative to wild-type (retention of bound 3H-NMS), in words” value [1] was “smaller enhancements”.

B2: L65A/E397A: M1 mAChR double mutant, Ala mutation on L65A background (protein, UniProt P11229 1-460, looked up, variant L65A E397A)
Muscarinic acetylcholine …: B1 chain with L65A, A145M, E397A
B2 was tested, and the “Stability (βOG in-situ) % L65A control” value [1] was 166 ± 16 % L65A control, the “in-situ stability relative to L65A, in words” value [1] was “more stable” and the “Tm (0.1% DDM)” value [2] was 33.6 ± 0.2 °C. For the same molecule, the “thermal stability (Tm) relative to L65A, in words” value [2] was “increased stability”.

B3: L65A/V409A: M1 mAChR double mutant, Ala mutation on L65A background (protein, UniProt P11229 1-460, looked up, variant L65A V409A)
Muscarinic acetylcholine …: B1 chain with L65A, A145M, V409A
For B3, the “Stability (βOG in-situ) % L65A control” value [1] was 34 ± 3 % L65A control, the “in-situ stability relative to L65A, in words” value [1] was “significantly reduced stability” and the “Tm (0.1% DDM)” value [2] was 26.8 °C. For the same molecule, the “thermal stability (Tm) relative to L65A, in words” value [2] was “reduced stability”.

B4: C69A: Ala-mutant in the transmembrane region of the M1 mAChR (protein)
chain: B1 chain with C69A, A145M
B4 was tested, and the “stability relative to wild-type (retention of bound 3H-NMS), in words” value [1] was “reductions”.

B5: L148A: M1 mAChR mutant L148A (protein)
chain: B1 chain with A145M, L148A
With B5 the “% 3H-NMS retained BOG” value ([1]; listed as L148A 1) was 74%, the “% 3H-NMS retained BOG” value ([1]; listed as L148A 2) was 69% and the “% loss/wt” value [1] was 0.54. It also gave a mean % retained [1] of 71.5%.

B6: L65A + L151A: M1 mAChR double mutant (protein)
chain: B1 chain with L65A, A145M, L151A
With B6 the “% 3H-NMS retained BOG” value ([1]; listed as L65A + L151A 1) was 70%, the “% 3H-NMS retained BOG” value ([1]; listed as L65A + L151A 2) was 76% and the “% loss/wt” value [1] was 0.51. It also gave a mean % retained [1] of 73%.

B7: L65A + M145A: M1 mAChR double mutant (protein)
chain: B1 chain with L65A
B7 was tested, and the “% 3H-NMS retained BOG” value ([1]; listed as L65A + M145A 1) was 91%, the “% 3H-NMS retained BOG” value ([1]; listed as L65A + M145A 2) was 73% and the “% loss/wt” value [1] was 0.34. The mean % retained [1] was 82%.

B8: I383/21: Sequencing established that I383/21 is I383G (M1 mAChR) (protein, UniProt P11229 1-460, looked up, variant I383G)
Muscarinic acetylcholine …: B1 chain with A145M, I383G
For B8, the “% 3H-NMS retained BOG” value ([1]; listed as I383/21 1) was 70%, the “% 3H-NMS retained BOG” value ([1]; listed as I383/21 2) was 62% and the “% loss/wt” value [1] was 0.64. For the same molecule, the mean % retained [1] was 66%.

B9: L65A/I73A: M1 mAChR double mutant, Ala mutation on L65A background (protein, UniProt P11229 1-460, looked up, variant L65A I73A)
Muscarinic acetylcholine …: B1 chain with L65A, I73A, A145M
B9 was tested, and the “Stability (βOG in-situ) % L65A control” value [1] was 46 ± 2 % L65A control, the “in-situ stability relative to L65A, in words” value [1] was “significantly reduced stability” and the “Tm (0.1% DDM)” value [2] was 27.0 ± 0.5 °C. For the same molecule, the “thermal stability (Tm) relative to L65A, in words” value [2] was “reduced stability”.

B10: I119A: Ala-mutant in the transmembrane region of the M1 mAChR (protein)
chain: B1 chain with I119A, A145M
B10 was tested, and the “stability relative to wild-type (retention of bound 3H-NMS), in words” value [1] was “reductions”.

B11: L65A/I74A: M1 mAChR double mutant, Ala mutation on L65A background (protein, UniProt P11229 1-460, looked up, variant L65A I74A)
Muscarinic acetylcholine …: B1 chain with L65A, I74A, A145M
B11 was tested, and the “Stability (βOG in-situ) % L65A control” value [1] was 51 ± 3 % L65A control, the “in-situ stability relative to L65A, in words” value [1] was “significantly reduced stability” and the “Tm (0.1% DDM)” value [2] was 28.8 ± 0.5 °C. For the same molecule, the “thermal stability (Tm) relative to L65A, in words” value [2] was “no change”.

B12: M384/27: Sequencing established that M384/27 is M384C (M1 mAChR) (protein, UniProt P11229 1-460, looked up, variant M384C)
Muscarinic acetylcholine …: B1 chain with A145M, M384C
With B12 the “% 3H-NMS retained BOG” value ([1]; listed as M384/27 1) was 63%, the “% 3H-NMS retained BOG” value ([1]; listed as M384/27 2) was 73% and the “% loss/wt” value [1] was 0.6. It also gave a mean % retained [1] of 68%.

B13: M384/40: Sequencing established that M384/40 is M384G (M1 mAChR) (protein, UniProt P11229 1-460, looked up, variant M384G)
Muscarinic acetylcholine …: B1 chain with A145M, M384G
With B13 the “% 3H-NMS retained BOG” value ([1]; listed as M384/40 1) was 71%, the “% 3H-NMS retained BOG” value ([1]; listed as M384/40 2) was 82% and the “% loss/wt” value [1] was 0.44. It also gave a mean % retained [1] of 76.5%.

B14: I73L: M1 mAChR mutant, substitution of another aliphatic amino acid at Ile 73 (protein)
chain: B1 chain with I73L, A145M
In the case of B14, the “extra increment of stability (full thermal stability assay)” value ([2]; 0.1% dodecyl maltoside) is reported as 0.9 °C.

B15: L151A: Ala-mutant in the transmembrane region of the M1 mAChR (protein)
chain: B1 chain with A145M, L151A
With B15 the “stability relative to wild-type (retention of bound 3H-NMS), in words” value [1] was “smaller enhancements”.

B16: L65G: M1 mAChR mutant L65G recovered by randomisation of the codon for position 65 (protein)
chain: B1 chain with L65G, A145M
B16 was tested, and the “% 3H-NMS retained BOG” value ([1]; listed as L65 G 1) was 49%, the “% 3H-NMS retained BOG” value ([1]; listed as L65 G 2) was 39% and the “% loss/wt” value [1] was 1.06. The mean % retained [1] was 44%.
